Test results taken from patent US10577618B2, “Class of glyphosate resistance genes” (Dow AgroSciences LLC, priority 2012, dated 2020).
Residue numbers refer to the chain shown, from its start. “Also recorded” adds a separate entry of the source.

B1: DGT-31: Streptomyces Class IV EPSP synthase, GENBANK YP_004922608.1, SEQ ID NO:145 (protein)
chain: MTVIDIPGSKSVTARALFLAAAADGTTTLLRPLHSDDTEGFTEGLTRLGYAVVREPDRWHIEGRPSGPAAADAEVHCRDGATTARFLPTLAAAAASGTYRFDASAQMRRRPLAPLTEALRTLGVDLRHDGAEGHHPLTIQASGVKGGGLTLDAGESSQYLTALLMLGPLTAEGLRIEVTELVSAPYVEITLAMMRGFGVEVVREGNTFTVPPGGYRATTYAIEPDASTASYFFAAAALTGREVTVPGLGTGALQGDLRFTEVLRRMDADVRTTSDSTTVRSDGRLAGLTVNMRDISDTMPTLAAIAPYASSPVRIEDVANTRVKECDRLEACAQNLRSMGITVRTGPDWIEIHPGTPRPTEIATHGDHRIVMSFAVAGLRTPGMSYDDPGCVRKTFPRFHEEFAAFVERSSAGE
modifications: Streptomyces pratensis ATCC 33331
B2: DGT-32: Streptomyces Class IV EPSP synthase, GENBANK ZP_04696613, SEQ ID NO:68 (protein)
chain: DRWRVQGRPAGPAATEADVYCRDGATTARFLPTLAAAAASGTYRFDASAQMRRRPLAPLTRALTALGVDLRH
modifications: Streptomyces roseosporus NRRL 15998
B3: DGT-33: Streptomyces Class IV EPSP synthase, GENBANK NC_010572, SEQ ID NO:67 (protein)
chain: B2 chain with Q6E, A10D, T15P, E16D, A35V
modifications: Streptomyces griseus subsp. griseus NBRC 13350
B4: DGT-28v1: Class IV EPSP synthase from Streptomyces sviceus ATCC29083, SEQ ID NO:1, native (protein, listed as Streptomyces sviceus)
chain: MRGMPALSLPGSKSITARALFLAAAADGVTTLVRPLRSDDTEGFAEGLVRLGYRVGRTPDTWQVDGRPQGPAVAEADVYCRDGATTARFLPTLAAAGHGTYRFDASPQMRRRPLLPLSRALRDLGVDLRHEEAEGHHPLTVRAAGVEGGEVTLDAGQSSQYLTALLLLGPLTRQGLRIRVTDLVSAPYVEITLAMMRAFGVEVAREGDVFVVPPGGYRATTYAIEPDASTASYFFAAAALTPGAEVTVPGLGTGALQGDLGFVDVLRRMGAEVSVGADATTVRGTGELRGLTANMRDISDTMPTLAAIAPFASAPVRIEDVANTRVKECDRLEACAENLRRLGVRVATGPDWIEIHPGPATGAQVTSYGDHRIVMSFAVTGLRVPGISFDDPGCVRKTFPGFHEAFAELRRGIGS

Columns and labels:
T1 Arabidopsis = assay: Glyphosate tolerance of transformed T1 Arabidopsis, postemergence spray, visual % injury; type: in vivo, Arabidopsis thaliana
From the text: Transgenic T1 Arabidopsis plants containing the dgt-28 transgene were sprayed with differing rates of glyphosate. Elevated rates were applied in this study to determine the relative levels of resistance (105, 420, 1,680 or 3,360 g ae/ha). A typical 1× field usage rate of glyphosate is 1120 g ae/ha. The T1 Arabidopsis plants that were used in this study were variable copy number for the dgt-28 transgene. The low copy dgt-28 T1 Arabidopsis plants were self-pollinated and used to produce T2 plants.
The Arabidopsis T1 transformants were first selected from the background of untransformed seed using a glufosinate selection scheme. Three flats or 30,000 seed were analyzed for each T1 construct. The T1 plants selected above were molecularly characterized and the high copy number plants were subsequently transplanted to individual pots and sprayed with various rates of commercial glyphosate as previously described. The response of these plants is presented in terms of % visual injury 2 weeks after treatment (WAT). […] An arithmetic mean and standard deviation is presented for each construct used for Arabidopsis transformation. The range in individual response is also indicated in the last column for each rate and transformation. Wild-type, non-transformed Arabidopsis (c.v. Columbia) served as a glyphosate sensitive control.
T1 plants were sampled and copy number analysis for the dgt-31, dgt-32, and dgt-33 v1 gene were completed. T1 plants were then assigned to various rates of glyphosate so that a range of copies were among each rate. For Arabidopsis, 26.25 g ae/ha glyphosate is an effective dose to distinguish sensitive plants from ones with meaningful levels of resistance. Elevated rates were applied to determine relative levels of resistance (105, 420, 1680, or 3360 g ae/ha).
All glyphosate herbicide applications were made by track sprayer in a 187 L/ha spray volume. Glyphosate used was of the commercial Durango dimethylamine salt formulation (480 g ae/L, Dow AgroSciences, LLC). […]

[1] = tested on: EPSP synthase (DGT enzymes); assay: In vitro kinetic characterization of plant and bacterial DGT enzymes (Pi production, malachite green); type: biochemical; settings: for Km: read-out: KM^PEP, Km for phosphoenolpyruvate; for decrease in catalytic efficiency: relative to DGT-28 v1
Procedure: Recombinant DGT proteins were overexpressed in Rosetta2™ (DE3) cells (Novagen™, Madison, Wis.) from the constructs described above. A single colony was used to inoculate 50 mL starter cultures of LB containing chloramphenicol (25 μg/mL) and kanamycin (50 μg/mL) which were cultivated overnight at 37° C. The overnight cultures were used to inoculate 1 L of LB containing chloramphenicol (25 μg/mL) and kanamycin (50 μg/mL). The cultures were grown at 37° C. to an O.D.600=0.6 then placed in an ice water bath for 10 minutes. Expression of the target proteins was achieved by addition of IPTG to a final concentration of 500 μM.
DGT enzymes were purified to homogeneity in one step via immobilized metal affinity chromatography (IMAC) using a 5 mL HisTrap FF crude column. The column was equilibrated in Buffer A and the sample was loaded in the same buffer. The column was then washed with 10 column volumes of Buffer A followed by elution in a 0-100% Buffer B (50 mM HEPES pH 7.5, 200 mM KCl, 2 mM DTT, 1 mM EDTA, 500 mM imidazole, and 5% glycerol) linear gradient over 25 column volumes. Fractions containing target protein, as judged by SDS-PAGE analysis, were concentrated to 2.5 mL using a Millipore ultracentrifugation device equipped with a 10 kDa molecular weight cut-off (MWCO). The purified DGT enzymes were buffer exchanged using PD-10 columns (GE Healthcare) into 50 mM HEPES pH 7.5, 150 mM KCl, 2 mM DTT, and 5% glycerol and subsequently concentrated ˜1 mL. Samples were typically diluted 1:50 and the UV-visible spectrum was recorded from 240-700 nm on a Cary50™ Bio UV-visible spectrophotometer. A theoretical extinction coefficient was then used to calculate the protein concentration based on the absorbance at 280 nm (ExPASy, Geneva, Switzerland).
Frozen pellets were resuspended in 20-30 mL buffer A (50 mM HEPES pH 7.5, 100 mM KCl, 1 mM EDTA, 5% glycerol, and 1 mM DTT) and 1 tablet of protease inhibitor (Roche Complete). Once the pellet was completely resolubilized 1 mg/mL of lysozyme was added and the sample was mixed at 4° C. for 15-20 minutes. Following the incubation with the lysozyme the sample was transferred to a 50 mL centrifuge tube and placed on ice. The sample was then sonicated for 1 minute intervals followed by 4 minutes of cooling. This step was repeated two more times for a total of three sonication cycles. Cell debris was removed by centrifugation at 16,500 rpm for 45 minutes and the supernatant was loaded into a 50 mL injection loop. The crude lysate was applied to an amylose column, washed for 7 column volumes with buffer A, and eluted in 100% buffer B (Buffer A and 10 mM maltose). Target protein was pooled and concentrated to 2.5 mL using a 30 kDa MWCO centricon. The purified protein was buffer exchanged into 50 mM HEPES pH 7.5, 100 mM KCl, and 5% glycerol using a PD-10 gel filtration column. Protein concentrations were determined via Bradford assay using BSA as a standard. The pure protein was frozen in liquid nitrogen and stored at −80° C.
The enzyme activities of wild-type (WT) and mutant DGTs were measured by inorganic phosphate (Pi) production in a modified procedure described by Lanzetta et al. (1979) Anal. Bioch. 100:95-7. Assays were performed in 96-well plate format in a total of 50 μL on a Spectra-Max 190 plate reader (Molecular Devices, Sunnyvale, Calif.). Typical assays contained 50 mM HEPES pH 7.5, 150 mM KCl, 2 mM DTT, and 1 mM S3P. […] Glyphosate was obtained from Sigma as the free acid and was resuspended in ddH2O. Glyphosate was solubilized by addition of KOH until the mixture was at a neutral pH. Assays were initiated by addition of the DGT enzyme at concentrations that varied between 0.01-1 μM. Reactions were terminated by the addition of 235 μL of a 3:1 mixture of malachite green: ammonium molybdate solution. After complete color development (˜1 minute), the absorbance change at 660 nm was recorded and the amount of Pi formed was calculated from a standard curve. […]

Molecule | tolerance to glyphosate (T1 Arabidopsis) | Km [1] [µM] | decrease in catalytic efficiency [1] [fold] | tolerant to glyphosate at concentrations [1] [mM]
B1 | slight herbicide tolerance |  |  | 
B2 | significant tolerance; also recorded: robust tolerance | 140 | 100 | 
B3 | significant tolerance; also recorded: robust tolerance | 114 | 100 | 
B4 |  | 91.6 |  | > 80
